Source: paper PMC4481117, “The opioid peptide dynorphin A induces leukocyte responses via integrin Mac-1 (αMβ2, CD11b/CD18)” (Molecular Pain, 2015)
Blank lines part the entries; values can stand above or below the binder they belong to. cellulose = cellulose membrane support; βAla = NCCC(=O)O

Columns and labels:
[1] = target: integrin Mac-1 on IC-21 murine macrophages (mouse (endogenous in IC-21), UniProt P05555 17-1153; P11835 24-771); experiment: cell-based or functional assay
[2] = target: T1, 125I-labeled αMI-domain, active form (αM Glu123-Lys315) (UniProt P11215 139-331, 125I label); experiment: peptide or protein array; 9-mer peptides on cellulose membrane (SPOT synthesis), blocked with 1 % BSA, incubated with 10 μg/ml 125I-labeled αMI-domain in TBS with 1 mM MgCl2; autoradiography and densitometry; conditions: both partners purified
T1 construct: also called recombinant αMI-domain; α7 helix-truncated αMI-domain
T1 sequence (P11215 139-331): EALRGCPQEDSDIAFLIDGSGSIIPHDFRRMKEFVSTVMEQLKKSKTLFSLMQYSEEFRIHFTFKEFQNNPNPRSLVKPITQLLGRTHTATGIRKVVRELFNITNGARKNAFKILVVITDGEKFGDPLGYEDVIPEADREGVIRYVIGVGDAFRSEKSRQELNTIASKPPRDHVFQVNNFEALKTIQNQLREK

Sequence of integrin Mac-1 on IC-21 murine macrophages (P05555 17-1153, chain 1 of 2): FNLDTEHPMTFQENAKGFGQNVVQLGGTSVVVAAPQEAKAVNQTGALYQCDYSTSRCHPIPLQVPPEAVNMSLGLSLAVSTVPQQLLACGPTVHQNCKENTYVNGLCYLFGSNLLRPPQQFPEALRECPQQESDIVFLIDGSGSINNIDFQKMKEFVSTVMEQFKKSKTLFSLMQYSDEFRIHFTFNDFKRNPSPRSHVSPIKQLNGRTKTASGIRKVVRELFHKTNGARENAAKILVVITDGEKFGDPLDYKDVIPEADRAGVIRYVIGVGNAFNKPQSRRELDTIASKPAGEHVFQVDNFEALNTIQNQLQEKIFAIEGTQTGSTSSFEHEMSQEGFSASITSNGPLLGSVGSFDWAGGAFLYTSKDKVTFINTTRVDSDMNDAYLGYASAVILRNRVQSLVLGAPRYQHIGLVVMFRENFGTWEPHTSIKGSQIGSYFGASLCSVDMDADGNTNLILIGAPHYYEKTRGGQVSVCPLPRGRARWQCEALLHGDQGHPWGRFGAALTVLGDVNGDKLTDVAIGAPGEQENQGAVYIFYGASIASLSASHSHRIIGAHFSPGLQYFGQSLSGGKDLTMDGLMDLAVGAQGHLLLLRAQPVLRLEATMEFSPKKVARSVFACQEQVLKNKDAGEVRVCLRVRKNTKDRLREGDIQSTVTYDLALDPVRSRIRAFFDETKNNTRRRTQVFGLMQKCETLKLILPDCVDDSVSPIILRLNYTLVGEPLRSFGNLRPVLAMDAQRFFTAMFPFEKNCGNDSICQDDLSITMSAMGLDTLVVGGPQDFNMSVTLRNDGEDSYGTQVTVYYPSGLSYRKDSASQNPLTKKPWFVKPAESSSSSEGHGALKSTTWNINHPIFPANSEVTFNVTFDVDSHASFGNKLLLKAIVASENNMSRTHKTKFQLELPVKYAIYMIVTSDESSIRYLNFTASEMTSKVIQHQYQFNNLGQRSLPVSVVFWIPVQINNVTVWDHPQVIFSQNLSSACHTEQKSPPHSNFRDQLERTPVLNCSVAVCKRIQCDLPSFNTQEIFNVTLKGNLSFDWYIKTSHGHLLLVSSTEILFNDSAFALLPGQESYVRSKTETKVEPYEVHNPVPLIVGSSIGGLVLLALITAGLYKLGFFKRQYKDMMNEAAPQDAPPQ
Sequence of integrin Mac-1 on IC-21 murine macrophages (P11835 24-771, chain 2 of 2): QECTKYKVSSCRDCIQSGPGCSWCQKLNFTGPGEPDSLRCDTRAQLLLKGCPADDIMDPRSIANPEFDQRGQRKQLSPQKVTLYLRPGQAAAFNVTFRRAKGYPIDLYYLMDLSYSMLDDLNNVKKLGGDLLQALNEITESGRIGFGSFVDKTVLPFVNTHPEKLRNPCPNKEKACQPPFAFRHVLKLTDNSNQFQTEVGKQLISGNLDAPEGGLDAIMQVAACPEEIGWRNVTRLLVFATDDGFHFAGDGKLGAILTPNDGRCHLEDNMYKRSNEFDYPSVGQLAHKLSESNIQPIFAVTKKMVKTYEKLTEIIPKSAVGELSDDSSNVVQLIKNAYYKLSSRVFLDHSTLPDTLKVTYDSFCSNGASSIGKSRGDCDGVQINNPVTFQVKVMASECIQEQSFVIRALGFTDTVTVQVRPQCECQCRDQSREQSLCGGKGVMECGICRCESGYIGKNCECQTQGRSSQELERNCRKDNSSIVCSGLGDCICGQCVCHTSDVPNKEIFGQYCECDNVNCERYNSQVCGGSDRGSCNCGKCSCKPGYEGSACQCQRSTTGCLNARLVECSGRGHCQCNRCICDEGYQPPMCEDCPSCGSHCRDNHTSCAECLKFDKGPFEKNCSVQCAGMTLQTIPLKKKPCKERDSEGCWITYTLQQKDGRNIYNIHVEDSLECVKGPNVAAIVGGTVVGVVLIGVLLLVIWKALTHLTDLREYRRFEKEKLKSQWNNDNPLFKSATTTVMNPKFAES

phagocytosis of Dyn A-treated fluorescent latex beads by IC-21 murine macrophages, against control beads [1]: ~10 fold
Binder: YGGFLRRIRPKLKWDNQ [dynorphin A]

binding result [2]: binds
B1: dynorphin AB library peptide, spot 1 (YGGFLRRIR) (peptide)
peptide: Ac-YGGFLRRIR-{βAla-βAla-cellulose}
notes: 9-mer of dynorphin AB; also called peptide #1; source: synthetic peptide, parallel spot synthesis on cellulose membrane

binding result [2]: binds
B2: dynorphin AB library peptide, spot 2 (FLRRIRPKL) (peptide)
peptide: Ac-FLRRIRPKL-{βAla-βAla-cellulose}
notes: 9-mer of dynorphin AB; source: synthetic peptide, parallel spot synthesis on cellulose membrane
